Measurements as given in article PMC11324745.

Molecular target: Polθ-hel (DNA polymerase theta helicase domain) (human, UniProt O75417 1-894)
Assay: EMSA

Sequence of Polθ-hel (DNA polymerase theta helicase domain) (O75417 1-894): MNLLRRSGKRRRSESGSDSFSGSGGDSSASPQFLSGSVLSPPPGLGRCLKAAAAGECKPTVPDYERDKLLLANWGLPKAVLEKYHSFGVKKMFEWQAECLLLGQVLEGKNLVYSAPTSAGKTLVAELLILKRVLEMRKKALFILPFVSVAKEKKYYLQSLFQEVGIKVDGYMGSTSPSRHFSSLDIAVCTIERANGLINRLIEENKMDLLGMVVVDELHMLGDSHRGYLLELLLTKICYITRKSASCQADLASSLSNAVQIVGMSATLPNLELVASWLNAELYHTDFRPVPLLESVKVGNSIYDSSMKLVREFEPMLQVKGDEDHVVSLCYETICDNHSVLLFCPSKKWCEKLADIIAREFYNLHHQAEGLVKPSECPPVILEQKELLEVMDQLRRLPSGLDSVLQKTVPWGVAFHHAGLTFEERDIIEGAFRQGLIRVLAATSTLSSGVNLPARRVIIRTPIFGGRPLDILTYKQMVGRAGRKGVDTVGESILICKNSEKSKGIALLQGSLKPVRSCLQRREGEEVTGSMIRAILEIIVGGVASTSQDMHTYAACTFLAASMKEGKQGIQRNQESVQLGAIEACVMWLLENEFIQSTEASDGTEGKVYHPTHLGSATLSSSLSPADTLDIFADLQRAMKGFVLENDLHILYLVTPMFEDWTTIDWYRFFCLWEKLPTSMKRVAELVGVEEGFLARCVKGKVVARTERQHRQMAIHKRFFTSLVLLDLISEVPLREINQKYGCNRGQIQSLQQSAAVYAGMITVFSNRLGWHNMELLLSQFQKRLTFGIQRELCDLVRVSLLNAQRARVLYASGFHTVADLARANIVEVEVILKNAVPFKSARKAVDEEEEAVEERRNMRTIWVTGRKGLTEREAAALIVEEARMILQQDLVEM

Binder: TTTTTTTTTTTTTTTTTTTTTTTTTTTTT (ssDNA) [ssDNA RP316]
- binding result: binds
